# Data from patent US20150283275A1 (MorphoSys, published 2015).
# B1: ^213Bi-anti-CD38-MAb (antibody, V domains shown)
# VH: QVQLVESGGGLVQPGGSLRLSCAASGFTFSSYYMNWVRQAPGKGLEWVSGISGDPSNTYYADSVKGRFTISRDNSKNTLYLQMNSLRAEDTAVYYCARDLPLVYTGFAYWGQGTLVTVSS
# VL: DIELTQPPSVSVAPGQTARISCSGDNLRHYYVYWYQQKPGQAPVLVIYGDSKRPSGIPERFSGSNSGNTATLTISGTQAEDEADYYCQTYTGGASLVFGGGTKLTVLG
# B2: CHX-A″-DPTA-anti-CD38-MAb (antibody, V domains shown)
# VH: B1 VH
# VL: B1 VL
# notes: Anti-CD38-MAb MOR03087 (= MOR202) covalently coupled to SCN-CHX-A″-DTPA; also called Chelated anti-CD38-MAb; CHX-A″-DTPA conjugate of MOR03087 (MOR202)
# Key:
# Human CD38 [1] = biological target: T1, Human CD38 (human, UniProt P28907 1-300); test: cell-based or functional assay
# Human CD38 [2] = biological target: T1, Human CD38; test: cell binding assay, apparently on OPM2 myeloma cells (method cited from Huber et al 2003)
Binder,"γH2AX foci per cell (DNA double-strand breaks) 0.5 h after treatment, OPM2 cells compared to ARH77 cells (Human CD38 [1])",EC50 (Human CD38 [2])
B1,~2.5 fold,
B2,,16.4 nM
